Assays:
[1] = tested on: Arabidopsis thaliana T1 plants; assay: Isoxaflutole tolerance of transgenic Arabidopsis thaliana T1 plants (spray, bleached leaf area grade, damage score); format: in vivo; details: for Grade 0 (classification and statistics of the grade of pesticide damage; number of plants) / Grade 1 (classification and statistics of the grade of pesticide damage; number of plants) / Grade 2 (classification and statistics of the grade of pesticide damage; number of plants) / Grade 3 (classification and statistics of the grade of pesticide damage; number of plants): 16 plants; for Classification and statistics of the grade of pesticide damage: Grade 0 / Classification and statistics of the grade of pesticide damage: Grade 1 / Classification and statistics of the grade of pesticide damage: Grade 2 / Classification and statistics of the grade of pesticide damage: Grade 3: number of plants;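 for Scores: Weighted damage index from 0 to 100 where higher means more damage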
Method in brief: (§1)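 Damage graded 0–3 from the proportion of bleached leaf area 7 days after spraying. Plants were glufosinate-selected T1 lines, 18 days after sowing, plus vector and wild-type controls. Rates: mesotrione 52.5–420, isoxaflutole 35–280, topramezone 25–200 g ai/ha, with water (0×).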

[2] = tested on: Arabidopsis thaliana T1 plants; assay: Topramezone tolerance of transgenic Arabidopsis thaliana T1 plants (spray, bleached leaf area grade, damage score); format: in vivo; details: for Classification and statistics of the grade of pesticide damage Grade 0: number of plants at grade 0; for Classification and statistics of the grade of pesticide damage Grade 1: number of plants at grade 1; for Classification and statistics of the grade of pesticide damage Grade 2: number of plants at grade 2; for Classification and statistics of the grade of pesticide damage Grade 3: number of plants at grade 3; for Classification and statistics of the grade of pesticide damage: Grade 0 / Classification and statistics of the grade of pesticide damage: Grade 1 / Classification and statistics of the grade of pesticide damage: Grade 2 / Classification and statistics of the grade of pesticide damage: Grade 3: number of plants; for Grade 0 (classification and statistics of the grade of pesticide damage; number of plants) / Grade 1 (classification and statistics of the grade of pesticide damage; number of plants) / Grade 2 (classification and statistics of the grade of pesticide damage; number of plants) / Grade 3 (classification and statistics of the grade of pesticide damage; number of plants): 16 plants
Method in brief: as §1

[3] = isoxaflutole 140 g ai/ha (2x field concentration), Arabidopsis thaliana T1 plants
[4] = isoxaflutole 140 g ai/ha (2×), 7 DAT, Table 2
[5] = isoxaflutole 140 g ai/ha, number of plants in grade
[6] = isoxaflutole 280 g ai/ha (4x field concentration), Arabidopsis thaliana T1 plants
[7] = isoxaflutole 280 g ai/ha (4×), 7 DAT, Table 2
[8] = isoxaflutole 280 g ai/ha, number of plants in grade
[9] = Table 10, topramezone 100 g ai/ha (4×)
[10] = Table 10, topramezone 200 g ai/ha (8×)
[11] = topramezone 100 g ai/ha (4×), 7 DAT, Table 1
[12] = topramezone 200 g ai/ha (8×), 7 DAT, Table 1
[13] = topramezone 100 g ai/ha (4x field concentration), Arabidopsis thaliana T1 plants
[14] = topramezone 200 g ai/ha (8x field concentration), Arabidopsis thaliana T1 plants

B1: AsHPPD-02: nucleotide sequence encoding Avena sativa wild-type HPPD; vector DBN11727 (nucleic acid)
DNA: ATGCCACCTACTCCAGCTACAGCTACTGGTGCTGCTGCTGCTGCCGTTACTCCTGAGCACGCTGCCAGGTCATTCCCCAGGGTGGTTCGCGTGAACCCCAGATCTGATAGGTTCCCAGTTCTGAGCTTCCACCATGTTGAGCTGTGGTGCGCTGATGCTGCTTCTGCTGCTGGCAGGTTCTCTTTCGCTCTTGGTGCTCCACTCGCTGCTAGATCTGATCTGTCTACAGGAAATAGCGCTCATGCCTCACTCCTGCTTCGCTCAGGTGCTTTGGCCTTCCTCTTCACCGCTCCATATGCTCCCCCACCTCAGGAGGCTGCTACTGCTGCTGCTACAGCCTCCATTCCAAGCTTCTCAGCTGATGCCGCTAGAACCTTCGCTGCTGCTCATGGACTTGCCGTGAGGTCTGTTGGTGTTCGCGTGGCTGATGCTGCTGAGGCTTTCAGAGTTTCCGTTGCCGGCGGAGCTAGGCCAGCTTTCGCTCCTGCTGATTTGGGACATGGTTTCGGCCTGGCTGAGGTTGAGCTTTACGGTGACGTGGTTCTCCGCTTCGTGTCTTACCCAGATGAGACTGACCTGCCTTTCCTTCCCGGCTTCGAGAGAGTTTCCTCTCCTGGTGCCGTGGATTACGGCCTGACAAGGTTCGACCACGTGGTTGGAAACGTTCCCGAGATGGCTCCAGTGATCGATTACATGAAGGGCTTCCTTGGATTCCATGAGTTCGCCGAGTTCACTGCTGAGGACGTGGGAACCACTGAGTCCGGTTTGAACTCTGTGGTTCTCGCCAACAATTCTGAGGCTGTTTTGCTCCCTCTGAATGAGCCTGTGCATGGAACCAAGAGGAGAAGCCAGATTCAAACTTACCTGGAGTACCACGGTGGCCCTGGAGTTCAGCATATCGCCCTTGCTTCTAATGATGTGTTGCGCACACTCAGAGAGATGCGCGCCAGAACCCCCATGGGAGGTTTCGAGTTCATGGCCCCACCACAGGCTAAGTACTACGAGGGCGTTAGAAGGATTGCTGGAGACGTGTTGAGCGAGGAGCAGATCAAGGAGTGCCAAGAGCTGGGTGTTCTTGTGGATAGGGATGACCAGGGCGTTCTGCTTCAAATTTTCACTAAGCCAGTGGGCGACCGCCCTACATTCTTCCTTGAGATGATTCAAAGAATCGGCTGCATGGAGAAGGATGAGGTTGGACAGGAGTACCAAAAGGGCGGATGCGGTGGCTTCGGAAAGGGTAACTTCAGCGAGTTGTTCAAGTCAATCGAGGACTACGAGAAGAGCCTCGAGGTGAAGCAGTCAGTGGTTGCCCAAAAGTCCTGA
modifications: AsHPPD-02 Nucleotide Sequence
notes: vector DBN11727
Resistance evaluation ([1]; Table 11, isoxaflutole 140 g ai/ha (2×)): Non-resistant
Classification and statistics of the grade of pesticide damage Grade 0 ([1]; Table 11, isoxaflutole 140 g ai/ha (2×), number of plants at grade 0): 0
Classification and statistics of the grade of pesticide damage Grade 1 ([1]; Table 11, isoxaflutole 140 g ai/ha (2×), number of plants at grade 1): 1
Classification and statistics of the grade of pesticide damage Grade 2 ([1]; Table 11, isoxaflutole 140 g ai/ha (2×), number of plants at grade 2): 4
Classification and statistics of the grade of pesticide damage Grade 3 ([1]; Table 11, isoxaflutole 140 g ai/ha (2×), number of plants at grade 3): 11
Scores ([1]; Table 11, isoxaflutole 140 g ai/ha (2×), pesticide damage score): 88
Resistance evaluation ([1]; Table 11, isoxaflutole 280 g ai/ha (4×)): Non-resistant
Classification and statistics of the grade of pesticide damage Grade 0 ([1]; Table 11, isoxaflutole 280 g ai/ha (4×), number of plants at grade 0): 0
Classification and statistics of the grade of pesticide damage Grade 1 ([1]; Table 11, isoxaflutole 280 g ai/ha (4×), number of plants at grade 1): 0
Classification and statistics of the grade of pesticide damage Grade 2 ([1]; Table 11, isoxaflutole 280 g ai/ha (4×), number of plants at grade 2): 0
Classification and statistics of the grade of pesticide damage Grade 3 ([1]; Table 11, isoxaflutole 280 g ai/ha (4×), number of plants at grade 3): 16
Scores ([1]; Table 11, isoxaflutole 280 g ai/ha (4×), pesticide damage score): 100
tolerance to isoxaflutole (in words) ([1]; in vivo): no tolerance
Resistance evaluation ([1]; isoxaflutole 140 g ai/ha): Non-resistant
Scores ([1]; isoxaflutole 140 g ai/ha): 88
Resistance evaluation [1, 3]: Non-resistant
Scores [1, 3]: 88
Grade 0 (classification and statistics of the grade of pesticide damage; number of plants) [1, 3]: 0
Grade 1 (classification and statistics of the grade of pesticide damage; number of plants) [1, 3]: 1
Grade 2 (classification and statistics of the grade of pesticide damage; number of plants) [1, 3]: 4
Grade 3 (classification and statistics of the grade of pesticide damage; number of plants) [1, 3]: 11
Resistance evaluation [1, 4]: non-resistant (non-resistant plants (scores 68-100))
Classification and statistics of the grade of pesticide damage Grade 0 [1, 5]: 0
Classification and statistics of the grade of pesticide damage Grade 1 [1, 5]: 1
Classification and statistics of the grade of pesticide damage Grade 2 [1, 5]: 4
Classification and statistics of the grade of pesticide damage Grade 3 [1, 5]: 11
Resistance evaluation ([1]; isoxaflutole 280 g ai/ha): Non-resistant
Scores ([1]; isoxaflutole 280 g ai/ha): 100
Resistance evaluation [1, 6]: Non-resistant
Scores [1, 6]: 100
Grade 0 (classification and statistics of the grade of pesticide damage; number of plants) [1, 6]: 0
Grade 1 (classification and statistics of the grade of pesticide damage; number of plants) [1, 6]: 0
Grade 2 (classification and statistics of the grade of pesticide damage; number of plants) [1, 6]: 0
Grade 3 (classification and statistics of the grade of pesticide damage; number of plants) [1, 6]: 16
Resistance evaluation [1, 7]: non-resistant (non-resistant plants (scores 68-100))
Classification and statistics of the grade of pesticide damage Grade 0 [1, 8]: 0
Classification and statistics of the grade of pesticide damage Grade 1 [1, 8]: 0
Classification and statistics of the grade of pesticide damage Grade 2 [1, 8]: 0
Classification and statistics of the grade of pesticide damage Grade 3 [1, 8]: 16
Classification and statistics of the grade of pesticide damage: Grade 0 [1, 4]: 0
Classification and statistics of the grade of pesticide damage: Grade 1 [1, 4]: 1
Classification and statistics of the grade of pesticide damage: Grade 2 [1, 4]: 4
Classification and statistics of the grade of pesticide damage: Grade 3 [1, 4]: 11
Classification and statistics of the grade of pesticide damage: Grade 0 [1, 7]: 0
Classification and statistics of the grade of pesticide damage: Grade 1 [1, 7]: 0
Classification and statistics of the grade of pesticide damage: Grade 2 [1, 7]: 0
Classification and statistics of the grade of pesticide damage: Grade 3 [1, 7]: 16
Scores ([1]; pesticide damage score 0-100, isoxaflutole 140 g ai/ha (2×), 7 DAT, Table 2): 88
Scores ([1]; pesticide damage score 0-100, isoxaflutole 280 g ai/ha (4×), 7 DAT, Table 2): 100
Resistance evaluation [2, 9]: Non-resistant
Classification and statistics of the grade of pesticide damage Grade 0 [2, 9]: 0
Classification and statistics of the grade of pesticide damage Grade 1 [2, 9]: 0
Classification and statistics of the grade of pesticide damage Grade 2 [2, 9]: 4
Classification and statistics of the grade of pesticide damage Grade 3 [2, 9]: 12
Scores ([2]; Table 10, topramezone 100 g ai/ha (4×), pesticide damage score): 92
Resistance evaluation [2, 10]: Non-resistant
Classification and statistics of the grade of pesticide damage Grade 0 [2, 10]: 0
Classification and statistics of the grade of pesticide damage Grade 1 [2, 10]: 0
Classification and statistics of the grade of pesticide damage Grade 2 [2, 10]: 0
Classification and statistics of the grade of pesticide damage Grade 3 [2, 10]: 16
Scores ([2]; Table 10, topramezone 200 g ai/ha (8×), pesticide damage score): 100
tolerance to topramezone (in words) ([2]; in vivo): no tolerance
Classification and statistics of the grade of pesticide damage: Grade 0 [2, 11]: 0
Classification and statistics of the grade of pesticide damage: Grade 1 [2, 11]: 0
Classification and statistics of the grade of pesticide damage: Grade 2 [2, 11]: 4
Classification and statistics of the grade of pesticide damage: Grade 3 [2, 11]: 12
Classification and statistics of the grade of pesticide damage: Grade 0 [2, 12]: 0
Classification and statistics of the grade of pesticide damage: Grade 1 [2, 12]: 0
Classification and statistics of the grade of pesticide damage: Grade 2 [2, 12]: 0
Classification and statistics of the grade of pesticide damage: Grade 3 [2, 12]: 16
Scores ([2]; pesticide damage score 0-100, topramezone 100 g ai/ha (4×), 7 DAT, Table 1): 92
Scores ([2]; pesticide damage score 0-100, topramezone 200 g ai/ha (8×), 7 DAT, Table 1): 100
Resistance evaluation [2, 13]: Non-resistant
Scores [2, 13]: 92
Grade 0 (classification and statistics of the grade of pesticide damage; number of plants) [2, 13]: 0
Grade 1 (classification and statistics of the grade of pesticide damage; number of plants) [2, 13]: 0
Grade 2 (classification and statistics of the grade of pesticide damage; number of plants) [2, 13]: 4
Grade 3 (classification and statistics of the grade of pesticide damage; number of plants) [2, 13]: 12
Resistance evaluation [2, 11]: non-resistant (non-resistant plants (scores 68-100))
Resistance evaluation [2, 14]: Non-resistant
Scores [2, 14]: 100
Grade 0 (classification and statistics of the grade of pesticide damage; number of plants) [2, 14]: 0
Grade 1 (classification and statistics of the grade of pesticide damage; number of plants) [2, 14]: 0
Grade 2 (classification and statistics of the grade of pesticide damage; number of plants) [2, 14]: 0
Grade 3 (classification and statistics of the grade of pesticide damage; number of plants) [2, 14]: 16
Resistance evaluation [2, 12]: non-resistant (non-resistant plants (scores 68-100))

Reference: US20250043302A1, “MUTATED HYDROXYPHENYLPYRUVATE DIOXYGENASE POLYPEPTIDE, AND CODING GENE AND USE THEREOF” (BEIJING DABEINONG BIOTECHNOLOGY CO., LTD., priority 2021, published 2025)
